Results reported in publication PMC5355995.

Legend:
[1] = molecular target: T1, Rex-His6 (Streptomyces avermitilis ATCC31267) (UniProt Q82E78); assay: EMSA; details: EMSA: DIG Gel Shift Kit (Roche) binding buffer, 1 ug poly[d(I-C)] in 20 ul, 30 min at 25 C, 5% native PAGE in 0.5x TBE; footprinting: 400 ng DNA in 25 ul …
T1 sequence: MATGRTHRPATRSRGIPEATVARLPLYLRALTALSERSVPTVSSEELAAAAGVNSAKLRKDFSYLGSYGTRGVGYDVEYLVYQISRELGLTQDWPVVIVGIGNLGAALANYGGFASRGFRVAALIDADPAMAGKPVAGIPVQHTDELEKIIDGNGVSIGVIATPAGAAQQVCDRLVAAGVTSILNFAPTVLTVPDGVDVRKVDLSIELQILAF

[2] = molecular target: T1, Rex-His6 (Streptomyces avermitilis ATCC31267); assay: DNase I footprinting; details: EMSA: DIG Gel Shift Kit (Roche) binding buffer, 1 ug poly[d(I-C)] in 20 ul, 30 min at 25 C, 5% native PAGE in 0.5x TBE; footprinting: 400 ng DNA in 25 ul …

Row | Sequence | binding [1] | binding [2]
1 | CAGTTGCCACGGTGCTCCTGCGGGTAGCGCGGGGCTGCAGGCGGTCACACGTACCTAGACCGCCCCGTCGAAAGCAGGCTATGTCTTTGTGAACGCGTGCACAAAGATAGTGTCCGATTTGCCCGGCCAACGTGACCGGGGTCACGCGCCCCCGGCGTATGCGTATGGAACCGGCACACAGGCGCCTTCGTTCCTCACTCGACGGGGGCAAAACCGCACACACTCCTCAACGATCCACGCCCCCCGAGACCAAACCGCCCCCGATCCTAAGCGACTTTCCGGGCTGTTTGGACTACTC (double strand) [rex promoter probe] | binds | binds
2 | GCTTCATGATCCTTCGCCAGGTGGCAGAGATCACAAACTCCTTACTTACCCCCGTGTCGCAGATCACAGACCGCCGGGCATAGGATGCGCAGCAGTTGGGCTTGTGACCTGCTTCACATGTACGCGATCTTCGTCGGGACGCACGGGGTTCGTGGGACGTGTGAGGCGGGAGTGCTCGCCCGACGCAACCTCCCCCAAGGTCTCGGCTCCGCTCGACCAGGGGGACCCCCATGCAGTCAGTGCCGACTGAGAGGAGCGAGGAGCGTGAA (double strand) [nuoA1 promoter EMSA probe] | binds | 
3 | GAGTCTCTACGTGGCGATCGAGACGGCCCGCAACACCGGCCTCCACAGAGAGCCAGAACCCCTCCTCAATCCAAAGGACCACGTCAGTCCGTCTGACGATCGGCCCTTCACTTGTTGAGGGATTCGTGAAAGCGTTCACATTCACAAGCAACCTGAATGTAATACCAAGGAGAGGTAGCAGCCATGGA (double strand) [wblE promoter EMSA probe] | binds | 
